One may read the Kd as the constant that tells how readily two partners part at equilibrium. A high value points to weaker binding.

Non-standard residues stand in square brackets, D forms with d. No end group written: not given here. sY = N[C@@H](Cc1ccc(OS(=O)(=O)O)cc1)C(=O)O

This is an account of results in US20040002450A1 (published 2004).

In assay [1] the target is T1, PSGL-1 on KG-1 cells (human, UniProt Q14242 42-412, sulfated tyrosines in the N-terminal site).
T1 construct: whole, on cells; results told for KG-1 cells are written against this molecule; also called P-Selectin Glycoprotein Ligand-1; CD162
T1 sequence (looked up): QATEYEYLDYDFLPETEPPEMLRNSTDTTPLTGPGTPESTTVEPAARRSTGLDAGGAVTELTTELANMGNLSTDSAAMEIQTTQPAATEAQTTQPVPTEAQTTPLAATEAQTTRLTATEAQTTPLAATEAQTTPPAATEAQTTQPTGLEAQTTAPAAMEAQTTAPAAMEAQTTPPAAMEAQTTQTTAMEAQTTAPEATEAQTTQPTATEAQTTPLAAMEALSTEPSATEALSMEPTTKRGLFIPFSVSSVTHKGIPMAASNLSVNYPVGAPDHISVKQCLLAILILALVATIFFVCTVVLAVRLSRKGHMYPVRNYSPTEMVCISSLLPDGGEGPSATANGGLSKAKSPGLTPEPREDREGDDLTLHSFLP
Kind of assay: second radioreceptor competition assay on KG-1 cells. The method, then: (§1) The assay system involved the use of radioactive ligands that were prepared by iodination with ¹²⁵I using chloramine T on the Y1-IgG construct or the Bolton-Hunter (CONY1) reagent. The assay tubes contained 5×10⁶ KG-1 cells per 0.2 ml and a labeled tracer with varying amounts of unlabeled competitor, in PBS+0.1% BSA, pH 7.4. After one hour incubation with agitation at 4° C., the cells were thoroughly washed with cold buffer and taken for radioactivity counting.
In a second RRA using labeled CONYL, a 100 ng/tube of ¹²⁵I-Y1-IgG was used, and competition was performed with each of the three molecules.

The target in assay [2] is T1, PSGL-1 on KG-1 cells. Kind of assay: radioreceptor competition assay on KG-1 cells, 125I-Y1-IgG tracer. On the procedure:
as §1
For the radio receptor binding assay (RRA), 2 ng/tube of ¹²⁵I-Y1-IgG was used, and competition was performed with each of the three molecules.

Assay [3] deals with T1, PSGL-1 on KG-1 cells. As to the kind of experiment: FACS on KG-1 cells, directly FITC-labelled.
Assay [4] has as its target T1, PSGL-1 on KG-1 cells. As to the kind of experiment: radio receptor assay on KG-1 cells, dimer as competitor.
In assay [5] the target is T2, Y1 scFv.
T2 construct: Fully human scFv from the Nissim I phage library; Used biotin-labelled in the Western blots; also called scFv Y1; scFv-Y1
Kind of assay: competitive FACS, 1 µg Y1-scFv on ~10^7 washed platelets, peptide 2.5 µM. The method, then: (§2) ELISA assays were developed to evaluate the effect of the GPIb derived synthetic peptides on the binding of Y1 to purified glycocalicin. In addition, FACS analysis using washed platelets was carried out. To evaluate the importance of sulfated tyrosine within the Y1 binding site of GPIb, a competitive binding FACS analysis was used. Y1-scFv at a concentration of 1 μg was preincubated with different peptides at concentrations of 2.5 and 200 μM. After a preincubation for 30 minutes at room temperature the mixture was added to a tube containing ˜10⁷ washed platelets and the binding of Y1 to the washed platelets was assessed using polyclonal rabbit anti-scFv-PE. The inhibitory effect of the peptides compared to control binding (Y1 alone) was evaluated by measuring the residual binding of Y1 to washed platelets. The peptides and the results are described in Table 1 and are similar to results that were observed using the same peptides in an ELISA assay (Table B). In both assays, a control level of Y1 binding was determined, as follows. A polystyrene microtiter maxisorb plate was coated with (a) purified glycocalicin or (b) washed platelets. After extensive washing, 0.5 μg/well of Y1 was added. The plate was then incubated with rabbit anti-scFv followed by addition of anti rabbit —HRP (horse radish peroxidase) and HRP substrate. The level of anti rabbit —HRP binding was measured by the intensity of the color produced, and the level of anti rabbit —HRP binding correlates with the level of binding of anti Y1-scFv and the level of binding of Y1. The optical density was measured at A405. Each sample was assayed in duplicate, and the average was calculated.

The target in assay [6] is T2, Y1 scFv. As to the kind of experiment: competition ELISA on coated glycocalicin, 0.25 µg/well Y1, peptide 0.5 µM. The method, then:
as §2
(§3) The effect of synthetic GPIbα peptides on Y1 binding to purified glycocalicin was evaluated by mixing varying concentrations of the peptides with a constant amount of Y1. […] The inhibitory effect of the peptides was evaluated by measuring the residual binding of Y1 to glycocalicin using rabbit anti Y1scFv and anti rabbit —HRP antibodies, as described for evaluation of Y1 binding in the absence of peptides.
For orientation: ELISA stands for enzyme-linked immunosorbent assay.

In assay [7] the target is T2, Y1 scFv. As to the kind of experiment: competitive FACS, 1 µg Y1-scFv on ~10^7 washed platelets, peptide 200 µM. On the procedure:
as §2

Assay [8] addresses T2, Y1 scFv. Kind of assay: competition ELISA on coated glycocalicin, 0.25 µg/well Y1, peptide 25 µM. The method, then: as §2, §3
Assay [9] has as its target T2, Y1 scFv. Kind of assay: competition ELISA on coated glycocalicin, 0.25 µg/well Y1, peptide 2.5 µM. On the procedure: as §2, §3

T2 sequence (scFv, as listed by the source): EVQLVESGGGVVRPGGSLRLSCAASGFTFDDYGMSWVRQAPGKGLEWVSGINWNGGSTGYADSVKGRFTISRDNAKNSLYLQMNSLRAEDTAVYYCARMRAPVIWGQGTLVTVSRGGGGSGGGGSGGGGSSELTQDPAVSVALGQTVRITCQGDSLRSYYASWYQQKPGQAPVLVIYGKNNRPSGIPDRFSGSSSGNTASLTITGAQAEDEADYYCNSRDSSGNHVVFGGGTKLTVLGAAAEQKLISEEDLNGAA

B1: Y1-cys-kak (cysteine dimer) (other)
scFv: MEVQLVESGGGVVRPGGSLRLSCAASGFTFDDYGMSWVRQAPGKGLEWVSGINWNGGSTGYADSVKGRFTISRDNAKNSLYLQMNSLRAEDTAVYYCARMRAPVIWGQGTLVTVSRGGGGSGGGGSGGGGSSELTQDPAVSVALGQTVRITCQGDSLRSYYASWYQQKPGQAPVLVIYGKNNRPSGIPDRFSGSSSGNTASLTITGAQAEDEADYYCNSRDSSGNHVVFGGGTKLTVLGGGGCKAK
modifications: Homodimer held by an interchain disulfide between Cys243 of chain 1 and Cys243 of chain 2.
notes: also called Y1-cys-kak scFv; dimer Y1-cys-kak
As for B1, in assay [1], the Kd was approximately 50 nM and the “fold higher affinity than CONY1” value was determined as 20 fold. Further, in [2], the Kd was approximately 40 nM, the “fold higher affinity than CONY1” value was 30 fold and the “fold lower affinity than the full Y1 antibody” value was found to be 2 fold. For the same molecule, the “fold less material than the monomer” value in [3] amounted to 10 fold. The “fold efficiency against the monomer” value in assay [4] was determined as 30 fold.

As for REEGRQHFFLLEGRSSYS (also called negative control peptide) [EGR], the “Residual Binding of Y1 (% of baseline) (Geo Mean)” value in assay [5] was 96 % of baseline; in assay [7], 119 % of baseline. The “Residual Binding of Y1 (% of baseline)” value in assay [6] is 121 % of baseline; in assay [8], 89 % of baseline; in assay [9] it was 100 % of baseline.

For the molecule TDL[sY]D[sY][sY]PEEDTE [P-2-S], the “Residual Binding of Y1 (% of baseline) (Geo Mean)” value in assay [5] is 61 % of baseline; in assay [7], 7 % of baseline. In addition, the “Residual Binding of Y1 (% of baseline)” value is 78 % of baseline in assay [6], 15 % of baseline in [8] and 52 % of baseline in [9].

With GDEGDTDL[sY]D[sY][sY]P [P-3-S], the “Residual Binding of Y1 (% of baseline) (Geo Mean)” value was 82 % of baseline in assay [5] and 26 % of baseline in assay [7]. Moreover, the entries for the “Residual Binding of Y1 (% of baseline)” value in assay [6], in assay [8] and in assay [9] were 80 % of baseline, 21 % of baseline and 67 % of baseline, respectively.
